Laboratory results published in patent US20240117018A1.

Key:
Assay in all cases: cell-based or functional assay
[1] = target: HIV-1 Env of pseudovirus WITO4160.33 (HIV-1)
[2] = target: HIV-1 Env pseudovirus BJOX015000.11.5 (HIV-1)
[3] = target: HIV-1 Env pseudovirus X2131_C1_B5 (HIV-1)
[4] = target: HIV-1 Env pseudovirus 6545.v4.c1 (HIV-1)
[5] = target: HIV-1 Env pseudovirus R3265.c06 (HIV-1)
[6] = target: HIV-1 Env of pseudovirus Ce1086_B2 (HIV-1)
[7] = target: HIV-1 Env of pseudovirus PVO.4 (HIV-1)
[8] = target: HIV-1 Env of pseudovirus Q769.d22 (HIV-1)
[9] = target: HIV-1 Env of pseudovirus HIV-16845-2.22 (HIV-1)
[10] = target: HIV-1 Env pseudovirus C4118.c09 (HIV-1)
[11] = target: HIV-1 Env of pseudovirus Ce0682_E4 (HIV-1)
[12] = target: HIV-1 Env pseudovirus BJOX028000.10.3 (HIV-1)
[13] = target: HIV-1 Env pseudovirus 0815.v3.c3 (HIV-1)
[14] = target: HIV-1 Env pseudovirus 211-9 (HIV-1)
[15] = target: HIV-1 Env of pseudovirus 1054_07_TC4_1499 (HIV-1)
[16] = target: HIV-1 Env of pseudovirus BF1266.431a (HIV-1)

## 8ANC195 (antibody)
[1]
  IC50: > 50 µg/mL
  IC80: > 50 µg/mL
[2]
  IC50 (Titer in TZM.bl cells): 0.97 µg/mL
  IC80 (Titer in TZM.bl cells): 4.3 µg/mL
[3]
  IC50 (Titer in TZM.bl cells): 3.47 µg/mL
  IC80 (Titer in TZM.bl cells): > 50 µg/mL
[4]
  IC50 (Titer in TZM.bl cells): 26.9 µg/mL
  IC80 (Titer in TZM.bl cells): > 50 µg/mL
[5]
  IC50 (Titer in TZM.bl cells): 50 µg/mL
  IC80 (Titer in TZM.bl cells): > 50 µg/mL
[6]
  IC50: 4.42 µg/mL
  IC80: 19.1 µg/mL
[7]
  IC50: 0.52 µg/mL
  IC80: 1.87 µg/mL
[8]
  IC50: 0.26 µg/mL
  IC80: 1.2 µg/mL
[9]
  IC50: 3.3 µg/mL
  IC80: 20.1 µg/mL
[10]
  IC50 (Titer in TZM.bl cells): 0.2 µg/mL
  IC80 (Titer in TZM.bl cells): 0.71 µg/mL
[11]
  IC50: 0.2 µg/mL
  IC80: 1.29 µg/mL
[12]
  IC50 (Titer in TZM.bl cells): 0.45 µg/mL
  IC80 (Titer in TZM.bl cells): 2.83 µg/mL
[13]
  IC50 (Titer in TZM.bl cells): 1.94 µg/mL
  IC80 (Titer in TZM.bl cells): 1.94 µg/mL
[14]
  IC50 (Titer in TZM.bl cells): 1.34 µg/mL
  IC80 (Titer in TZM.bl cells): 8.43 µg/mL
[15]
  IC50: 1.02 µg/mL
  IC80: 6.75 µg/mL
[16]
  IC50: > 50 µg/mL
  IC80: > 50 µg/mL

## 3BNC117 (antibody)
[1]
  IC50: 0.01 µg/mL
  IC80: 0.04 µg/mL
[2]
  IC50 (Titer in TZM.bl cells): 0.05 µg/mL
  IC80 (Titer in TZM.bl cells): 0.32 µg/mL
[3]
  IC50 (Titer in TZM.bl cells): 0.43 µg/mL
  IC80 (Titer in TZM.bl cells): 1.96 µg/mL
[4]
  IC50 (Titer in TZM.bl cells): > 50 µg/mL
  IC80 (Titer in TZM.bl cells): > 50 µg/mL
[5]
  IC50 (Titer in TZM.bl cells): 0.48 µg/mL
  IC80 (Titer in TZM.bl cells): 13 µg/mL
[6]
  IC50: 0.09 µg/mL
  IC80: 0.31 µg/mL
[7]
  IC50: < 0.09 µg/mL
  IC80: 0.19 µg/mL
[8]
  IC50: 0.01 µg/mL
  IC80: 0.04 µg/mL
[9]
  IC50: 27.5 µg/mL
  IC80: > 50 µg/mL
[10]
  IC50 (Titer in TZM.bl cells): 0.09 µg/mL
  IC80 (Titer in TZM.bl cells): 0.52 µg/mL
[11]
  IC50: 0.03 µg/mL
  IC80: 0.15 µg/mL
[12]
  IC50 (Titer in TZM.bl cells): 0.01 µg/mL
  IC80 (Titer in TZM.bl cells): 0.05 µg/mL
[13]
  IC50 (Titer in TZM.bl cells): 0.01 µg/mL
  IC80 (Titer in TZM.bl cells): 0.02 µg/mL
[14]
  IC50 (Titer in TZM.bl cells): 0.35 µg/mL
  IC80 (Titer in TZM.bl cells): 1.28 µg/mL
[15]
  IC50: 0.07 µg/mL
  IC80: 0.49 µg/mL
[16]
  IC50: 0.03 µg/mL
  IC80: 0.09 µg/mL
